The source of these data is PMC3794954, “An Improved SELEX-Seq Strategy for Characterizing DNA-Binding Specificity of Transcription Factor: NF-κB as an Example”.

The target of data set [1] is T1, NF-kB p50 (UniProt P19838 1-433). Nature of the data set: EMSA; higher affinity than the 3' T probe; 1x DBB (from 5x): 10 mM Tris-HCl pH 7.5, 50 mM NaCl, 0.5 mM EDTA, 3 mM MgCl2, 1% glycerol, 0.5 mg/ml BSA, 0.05% NP-40, 0.01 mM DTT; room temperature 60 min; 6%. The conditions noted are these: protein: commercial; chain copies: 2; label: biotin at ends; blunt.
T1 sequence (P19838 1-433): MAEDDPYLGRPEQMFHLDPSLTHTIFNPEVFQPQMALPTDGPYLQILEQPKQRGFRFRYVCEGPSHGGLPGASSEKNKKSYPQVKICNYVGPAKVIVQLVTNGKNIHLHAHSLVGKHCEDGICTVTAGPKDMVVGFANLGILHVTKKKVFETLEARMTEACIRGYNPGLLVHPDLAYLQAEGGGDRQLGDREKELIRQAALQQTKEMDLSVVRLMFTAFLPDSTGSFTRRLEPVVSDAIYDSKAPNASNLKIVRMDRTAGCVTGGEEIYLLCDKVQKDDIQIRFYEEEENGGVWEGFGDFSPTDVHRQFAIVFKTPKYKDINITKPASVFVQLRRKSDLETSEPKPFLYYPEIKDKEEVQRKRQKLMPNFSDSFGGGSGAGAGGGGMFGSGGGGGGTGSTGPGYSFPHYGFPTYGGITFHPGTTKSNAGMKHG
In data set [2] the target is T1, NF-kB p50. Description: EMSA; no polydI-dC; 1x DBB (from 5x): 10 mM Tris-HCl pH 7.5, 50 mM NaCl, 0.5 mM EDTA, 3 mM MgCl2, 1% glycerol, 0.5 mg/ml BSA, 0.05% NP-40, 0.01 mM DTT; room temperature 60 min; 6%. The conditions noted are these: protein: commercial; chain copies: 2; label: 5' FAM on reverse strand (primer P-R); blunt. For orientation: Mobility shift assays separate free from complexed probe on a gel.

B1: probe b (GGGACTTTCCC) (dsDNA)
DNA 1: AGTTGAGGGGACTTTCCCAGGC
DNA 2: GCCTGGGAAAGTCCCCTCAACT
Turning to B1, the binding result with NF-kB p50 [1] was “binds”.

B2: positive dsDNA (dsDNA)
DNA 1: ACTGTCTGAGGAGTGTCGTGTGCTAAAGGGACTTTCCAAAACGACTCAGCACCACTTCACTCAC
DNA 2: GTGAGTGAAGTGGTGCTGAGTCGTTTTGGAAAGTCCCTTTAGCACACGACACTCCTCAGACAGT
Take B2: the binding result in the data set with NF-kB p50 [2] is recorded as “binds”.
